From US20120321697A1, “BPB-BASED CARGO DELIVERY SYSTEM” (GWANGJU INSTITUTE OF SCIENCE AND TECHNOLOGY, priority 2009, published 2012)
No end group written: not given here.

Columns and labels:
[1] = target: T1, fibronectin EDB (Homo sapiens, UniProt P02751); experiment: Ka (1/Ms)
T1 construct: After transformation of pET28b vector carrying fibronectin ED-B into BL21 cells; His-tag (N); made in house; host or cells: E. coli BL21
Source text: (§1) Table printed on a drawing sheet, Fig. 11b
Head of the field: Ka (1/Ms)
(§2) The patent's description of the figure: FIG. 11a represents purification of the GST-BPB fusion protein.
(§3) FIG. 11b represents affinity of the GST-BPB to fibronectin EDB.
(§4) First copying reader's note: The name GST-BPB is printed only in Fig. 11a on this sheet, and the description gives Fig. 11b as its affinity to fibronectin EDB; the KD head says M but the cell prints nM.
(§5) Where the first naming reader finds the target: description_of_the_figure: FIG. 11b represents affinity of the GST-BPB to fibronectin EDB.

[2] = target: T1, fibronectin EDB; experiment: Kd (1/s)
Source text: as §1
Head of the field: Kd (1/s)
as §2, §3, §4, §5

T1 sequence (P02751 1271-1359): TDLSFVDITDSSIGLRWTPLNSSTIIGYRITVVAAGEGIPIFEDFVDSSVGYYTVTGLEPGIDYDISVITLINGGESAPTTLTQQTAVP

GST-BPB: fusion protein of glutathione S-transferase and BPB HCSSAVGSWTWENGKWTWKGIIRLEQ recognizing fibronectin EDB ({GST}-HCSSAVGSWTWENGKWTWKGIIRLEQ)
Ka (1/Ms) [1]: 1.22 e4 1/Ms
Kd [2]: 0.00347 s⁻¹
